In patent US20100055108A1:

Tests used:
[1] = target: human IL-17RA (human) (UniProt Q96F46); assay: cell-based or functional assay
[2] = target: human IL-17RC (human) (UniProt Q8NAC3); assay: cell-based or functional assay
UniProt Q8NAC3, sequence (Q8NAC3 21-791): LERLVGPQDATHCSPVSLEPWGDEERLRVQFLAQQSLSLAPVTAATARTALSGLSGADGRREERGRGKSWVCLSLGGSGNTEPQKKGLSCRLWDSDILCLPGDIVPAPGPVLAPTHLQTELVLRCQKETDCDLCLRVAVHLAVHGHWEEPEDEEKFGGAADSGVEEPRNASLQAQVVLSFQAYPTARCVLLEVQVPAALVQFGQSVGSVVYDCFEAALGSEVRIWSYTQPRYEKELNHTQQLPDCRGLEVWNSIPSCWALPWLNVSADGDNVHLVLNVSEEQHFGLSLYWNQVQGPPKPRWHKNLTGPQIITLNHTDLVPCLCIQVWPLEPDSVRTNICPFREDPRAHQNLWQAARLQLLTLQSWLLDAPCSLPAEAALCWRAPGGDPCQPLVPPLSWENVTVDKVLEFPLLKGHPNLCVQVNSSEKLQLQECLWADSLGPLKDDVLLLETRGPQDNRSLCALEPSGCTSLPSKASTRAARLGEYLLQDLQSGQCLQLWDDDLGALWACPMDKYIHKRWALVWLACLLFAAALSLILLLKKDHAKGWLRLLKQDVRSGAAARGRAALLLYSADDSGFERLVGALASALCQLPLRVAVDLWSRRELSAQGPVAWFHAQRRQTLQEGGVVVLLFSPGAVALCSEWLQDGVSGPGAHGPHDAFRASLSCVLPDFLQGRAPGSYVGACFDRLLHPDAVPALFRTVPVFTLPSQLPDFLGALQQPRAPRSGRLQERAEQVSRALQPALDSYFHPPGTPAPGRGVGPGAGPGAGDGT

Substance: recombinant human IL-17A (from UniProt Q16552 20-155) (ligand)
- inhibition of IL-17A-induced activation of c-Jun (c-Jun mRNA, quantitative RT-PCR) after IL-17RA iRNA knockdown in AGS cells [1]: 80%
- inhibition of IL-17A-induced activation of p65 (DNA-binding activity, TransAM NFkB kit) after IL-17RA iRNA knockdown in AGS cells [1]: 97%
- inhibition of activation of c-Jun (c-Jun mRNA, quantitative RT-PCR) after IL-17RC iRNA knockdown in AGS cells [2]: 82%
- inhibition of activation of p65 (DNA-binding activity, TransAM NFkB kit) after IL-17RC iRNA knockdown in AGS cells [2]: 89%
